Laboratory results as given in patent US20230349919A1 (Regeneron, published 2023).
Positions count from the first letter of the chain named.

Assays:
Der f 1 [1] = molecular target: T1, Der f 1 (house dust mite, UniProt P16311 99-321); assay: ELISA, coated Der f1
T1 construct: Also used oligonucleotide-barcoded for cell staining
T1 sequence (looked up): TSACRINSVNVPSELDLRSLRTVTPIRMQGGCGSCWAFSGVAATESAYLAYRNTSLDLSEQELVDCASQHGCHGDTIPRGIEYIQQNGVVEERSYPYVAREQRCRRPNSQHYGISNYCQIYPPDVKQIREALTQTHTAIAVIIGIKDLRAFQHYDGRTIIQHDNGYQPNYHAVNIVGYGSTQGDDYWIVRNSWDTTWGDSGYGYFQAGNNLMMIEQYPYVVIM
Method: (§1) After selecting allergen-specific antibodies, relative binding to Der p 1, Der p 2, and Der f 1 were quantified by ELISA. […] Specifically, binding microtiter plates were coated with 100 μl of 2 μg/mL of natural Der p 1, Der p 2, Der f 1, and Ole e 1 in PBS overnight at 4′C. IgE antibodies were prepared at a concentration of 1 μg/mL and serially diluted three-fold in PBS with 0.5% w/v BSA. After washing with 0.05% v/v Tween® 20 in PBS and blocking in PBS with 0.5% w/v BSA, 100 μl of the diluted IgE antibodies were transferred to the plates and incubated for one hour at ambient temperature. Subsequently, 100 μL of anti-mouse IgE antibody conjugated to horse-radish peroxidase (HRP) diluted at 1:5000 was added. The plates were then incubated for one hour at ambient temperature, and washed in 0.05% v/v/Tween® 20 in PBS. Subsequently, the HRP substrate 3,3′,5,5′-tetramethylbenzidine (TMB) was added. The reaction was stopped (with 100 μL of sulfuric acid 2.0 N) and optical density values determined using a plate reader at 450 nm.

Der p 2 [2] = molecular target: T2, Der p 2 (house dust mite, UniProt P49278 18-146); assay: ELISA, coated Der p2
T2 construct: Also used oligonucleotide-barcoded for cell staining
T2 sequence (looked up): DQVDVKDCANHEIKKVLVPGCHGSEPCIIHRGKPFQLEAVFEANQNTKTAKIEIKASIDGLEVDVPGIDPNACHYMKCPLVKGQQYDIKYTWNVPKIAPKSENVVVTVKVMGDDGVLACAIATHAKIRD
Method: as §1

Der p 2 [3] = molecular target: T2, Der p 2; assay: centered log-ratio of barcode count
Description: (§2) The barcoded antigen library was mapped by the CellRanger software to a custom short-read reference that contained the DNA tag sequences of the four barcoded antigens, namely, Der p 1, Der p 2, Der f 1 and Ole e 1. These tag sequences were quantified across all cells and were normalized by taking the centered log-ratio (CLR) per barcoded antigen across each sample capture. In addition, background antigen signal for each barcoded antigen was removed by DSB (Denoised and Scaled by Background). Both the CLR and the DSB normalized values were used to quantify the target antigen signals, namely, those for Der p 1, Der p 2 and Der f 1, against the control signal, namely, that for Ole e 1.

Der f 1 [4] = molecular target: T1, Der f 1; assay: centered log-ratio of barcode count
Description: as §2

Der p 2 [5] = molecular target: T2, Der p 2; assay: barcoded-antigen count on source cell
Der f 1 [6] = molecular target: T1, Der f 1; assay: barcoded-antigen count on source cell
Der p 2 [7] = molecular target: T2, Der p 2; assay: barcode rank score against control Ole e 1
Der f 1 [8] = molecular target: T1, Der f 1; assay: barcode rank score against control Ole e 1
Der p 1 [9] = molecular target: T3, Der p 1 (house dust mite, UniProt P08176 99-320); assay: ELISA, coated Der p1
T3 construct: Also used oligonucleotide-barcoded for cell staining; also called natural Der p 1
T3 sequence (looked up): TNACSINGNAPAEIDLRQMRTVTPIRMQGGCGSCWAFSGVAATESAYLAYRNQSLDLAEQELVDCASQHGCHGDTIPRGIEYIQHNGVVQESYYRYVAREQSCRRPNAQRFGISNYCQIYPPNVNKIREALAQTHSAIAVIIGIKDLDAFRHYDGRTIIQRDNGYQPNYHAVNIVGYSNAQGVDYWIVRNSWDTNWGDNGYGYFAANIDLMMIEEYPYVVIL
Method: as §1

Der p 2 [10] = molecular target: T2, Der p 2; assay: barcoded antigen sequencing of single IgE PCs with trapped IgE
Der p 1 [11] = molecular target: T3, Der p 1; assay: as above
Der f 1 [12] = molecular target: T1, Der f 1; assay: as above
Der p 2 [13] = molecular target: T2, Der p 2; assay: barcoded antigen sequencing of single IgE PCs with trapped IgE [cont.]
Description: as §2

Der p 1 [14] = molecular target: T3, Der p 1; assay: as above
Description: as §2

Der f 1 [15] = molecular target: T1, Der f 1; assay: as above
Description: as §2

Der p 2 [16] = molecular target: T2, Der p 2; assay: antigen specificity score against Ole e 1 from barcode counts of single IgE PCs [cont.]
Method: (§3) Antigen specificity score (AgSS) for IgG were calculated by subtracting the quantile of hIL-6Rα barcoded UMI counts multiplied by a penalty factor (x) from the quantile of hIL-4Rα barcoded UMI counts, AgSS=Q_hIL-4Rα-Q_hIL-6Rα^x. AgSS for IgE were calculated with a similar formula for mouse and human single cell data. For IgE scores the target antigens were either Der p1, Der p2 or Der f1 and the control was always Ole e1.
(§4) Following processing of the three single-cell libraries, the gene expression and V(D)J region sequencing data were used to subset PCs with a valid IgE constant region and detectable expression of IgE and CD79a but lacking the expression of Ms4a1 and CD19 typically found in non-PC B cells. IgE-expressing PCs were then assessed for differential expression against additional IgA, IgG, and IgM plasma cell isotypes to further characterize the unique transcriptional signature of IgE-secreting PCs. IgE-secreting PCs were then assessed for antigen specificity by comparing the normalized levels of the target antigens, namely, Der p 1, Der p 2, or Der f 1, against the normalized level of the control antigen Ole e 1. This was performed by calculating an empirical score for each target antigen and subtracting the […] with a penalty factor. The formula used to do is set forth below: […]

Der p 1 [17] = molecular target: T3, Der p 1; assay: as above
Method: as §3, §4

Der f 1 [18] = molecular target: T1, Der f 1; assay: as above
Method: as §3, §4

Ole e 1 [19] = molecular target: T4, Ole e 1 (olive, UniProt P19963 1-145); assay: centered log-ratio of barcode count
T4 construct: Also used oligonucleotide-barcoded for cell staining; also called olive allergen; negative control allergen
T4 sequence (looked up): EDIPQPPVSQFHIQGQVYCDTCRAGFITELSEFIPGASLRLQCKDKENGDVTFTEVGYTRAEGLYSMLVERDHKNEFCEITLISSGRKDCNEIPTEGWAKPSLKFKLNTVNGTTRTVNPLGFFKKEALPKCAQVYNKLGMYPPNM
Description: as §2

Ole e 1 [20] = molecular target: T4, Ole e 1; assay: barcoded-antigen count on source cell
[21] = molecular target: T5, human IL-4 Receptor α (hIL-4Rα) ectodomain (Example 17) (human, UniProt P24394 26-232, AlexaFluor 647 label, or biotin bound to PE-labeled streptavidin tetramer); assay: method not stated
T5 construct: extracellular domain; Used as AF647-labelled monomer (5 nM) and as biotinylated ectodomain on SA-PE tetramer; also called hIL-4Rα-AlexaFluor647 (monomeric); hIL-4Rα-biotin-StAv-PE (tetrameric)

[22] = molecular target: T5, human IL-4 Receptor α (hIL-4Rα) …; assay: Biacore at +25°C

B1: IgE mAb 12_2 (antibody, V domains shown)
VH: QAYLQQSGAELVRPGASVKMSCKASGYTFISYNMHWVKQTRRQGLEWIGAIYPGNGDTSYNQKFKGKATLTVDKSSSTAYMQLSSLTSEDSAVYFCARWDYYGSSYGAYWGQGTLVTVSA
VL: DIQMTQSPASLSVSVGETVTITCRASENIYSNLAWYQQKQGKSPQLLVYAATNLADGVPSRFSGSGSGTQYSLKINSLQSEDFGSYYCQHFWGTPWTFGGGTKLEIK
Der f 1 [1]
  EC50 (read off the curve): ~0.1 nM
Der p 2 [2]
  EC50 (read off the curve): ~0.1 nM
Der p 2 [3]
  Derp2_ab_clr: 0.00487
Der f 1 [4]
  Derf1_ab_clr: 1.74
Der p 2 [5]
  Derp2_ab_raw: 11 counts
Der f 1 [6]
  Derf1_ab_raw: 57 counts
Der p 2 [7]
  Derp2_ab_rank: 0.453
Der f 1 [8]
  Derf1_ab_rank: 0.973
Der p 1 [9]
  EC50 (read off the curve): ~0.1 nM

B2: Candidate ID 21 (antibody, V domains shown)
VH: QVQLQQSGPELVKPGASVKISCKAPGNAFSYSWMNWVKQRPGKGLEWVGRIYPGDGDTNYNGKFMGKATLTADKSSNTAYIQLSSLTSEDSAVYFCARSGGGTLYWYFDVWGTGTTVTVSS
VL: DIVMTQSPSSLALSVGQKVTMNCRSSQSLLNSFNQKNYLAWFQQKPGQSPRLLIYFASTRESGVPDRFIGSGSGTDFTLTISSVQAEDLADYFCQQHYNTPLTFGAGTTLELK
notes: IgE PCs LN
Der p 2 [10]
  Raw Antigen Barcode Count: 215
Der p 1 [11]
  Raw Antigen Barcode Count: 2
Der f 1 [12]
  Raw Antigen Barcode Count: 1
Der p 2 [13]
  Normalized Barcode Count: 4.01
Der p 1 [14]
  Normalized Barcode Count: -0.398
Der f 1 [15]
  Normalized Barcode Count: -0.795
Der p 2 [16]
  Antigen Score: 0.412
Der p 1 [17]
  Antigen Score: -0.245
Der f 1 [18]
  Antigen Score: -0.386

B3: IgE mAb 21_2 (antibody, V domains shown)
VH: B2 VH
VL: B2 VL
notes: IgE (IGHE, IGKC) from HDM-exposed mouse, LymphNode
Der p 2 [2]
  EC50 (read off the curve): ~0.2 nM
Der p 2 [3]
  Derp2_ab_clr: 4.01
Der f 1 [4]
  Derf1_ab_clr: -0.795
Ole e 1 [19]
  Olee1_ab_clr: 0.826
Der p 2 [5]
  Derp2_ab_raw: 215 counts
Der f 1 [6]
  Derf1_ab_raw: 1 counts
Ole e 1 [20]
  Olee1_ab_raw: 4 counts
Der p 2 [7]
  Derp2_ab_rank: 0.412
Der f 1 [8]
  Derf1_ab_rank: -0.386

B4: Candidate ID 13 (antibody, V domains shown)
VH: B1 VH
VL: B1 VL
Der p 2 [10]
  Raw Antigen Barcode Count: 11
Der p 1 [11]
  Raw Antigen Barcode Count: 15
Der f 1 [12]
  Raw Antigen Barcode Count: 57
Der p 2 [13]
  Normalized Barcode Count: 0.005
Der p 1 [14]
  Normalized Barcode Count: 0.233
Der f 1 [15]
  Normalized Barcode Count: 1.74
Der p 2 [16]
  Antigen Score: 0.453
Der p 1 [17]
  Antigen Score: 0.637
Der f 1 [18]
  Antigen Score: 0.973

B5: ab_1 (antibody, V domains shown)
VH: EVQLVESGGGLEQPGGSLRLSCAGSGFTFSDYAMTWVRQAPGKGLEWVSSISGSGGNTYYADSVKGRFTISRDNSKNTLYLQMNSLRAEDTAVYYCAKDALTIAIRPYYYGLDVWGQGTTVTVSS
VL: DIVMTQSPLSLPVTPGEPASISCRSSQSLDYSYGYNYLDWYLQKSGQSPQLLIYLASNRASGVPDRFSGSGSGTDFTLKISRVEAEDVGFYYCMQSLSTPYTFGQGTKLEIK
[21]
  Kd: 1.68 nM
[22]
  t1/2 pH7.4: > 116 min

B6: ab_2 (antibody, V domains shown)
VH: B5 VH with S30R, G56S, K98R, A100R, I103A, I105V
VL: B5 VL with Y33S, S98Q
[21]
  Kd: 3.26 nM
[22]
  t1/2 pH7.4: 21.7 min

B7: ab_3 (antibody, V domains shown)
VH: B5 VH with S30R, A100R, T102S, I103K, A104T
VL: B5 VL with D30L, Y33T, A56G
[21]
  Kd: 14.2 nM
[22]
  t1/2 pH7.4: 10.6 min

B8: IgE mAb 1_2 (antibody, V domains shown)
VH: QIQLVQSGPELKKPGETVKISCKASGYTFTTYGMSWVKQAPGKGLKWMGWINTYSGVPTYADDFKGRFVFSLETSASTAYLQINNLKNEDTATYFCARAYYYGSSYLIWYFDVWGTGTTVTVSS
VL: NIVLTQSPASLAVSLGQRATISCRASESVDSYGNSFMHWYQQKPGQPPKLLIYLASNLESGVPARFSGSGSRTDFTLTIDPVEADDAATYYCQQNNEDPYTFGGGTKLEIK
notes: IgE (IGHE, IGKC) from HDM-exposed mouse, BoneMarrow
Der p 2 [3]
  Derp2_ab_clr: 1.65
Der f 1 [4]
  Derf1_ab_clr: 1.32
Ole e 1 [19]
  Olee1_ab_clr: -1.12
Der p 2 [5]
  Derp2_ab_raw: 60 counts
Der f 1 [6]
  Derf1_ab_raw: 37 counts
Ole e 1 [20]
  Olee1_ab_raw: 0 counts
Der p 2 [7]
  Derp2_ab_rank: 1
Der f 1 [8]
  Derf1_ab_rank: 0.982
